According to patent US20210324061A1 (ARGENX BVBA, published 2021):

Molecular target: T1, human GARP-TGF-β1 complex (recombinant complex of human GARP and latent human TGF-β1) (human, UniProt Q14392 20-627; P01137 30-278; P01137 279-390)
T1 construct: also called huGARP-TGF-β1; hGARP-TGF-β1
Assay: SPR, Fab off-rate on human GARP-TGF-β1 complex

T1 sequence (Q14392 20-627 limits assumed, chain 1 of 3): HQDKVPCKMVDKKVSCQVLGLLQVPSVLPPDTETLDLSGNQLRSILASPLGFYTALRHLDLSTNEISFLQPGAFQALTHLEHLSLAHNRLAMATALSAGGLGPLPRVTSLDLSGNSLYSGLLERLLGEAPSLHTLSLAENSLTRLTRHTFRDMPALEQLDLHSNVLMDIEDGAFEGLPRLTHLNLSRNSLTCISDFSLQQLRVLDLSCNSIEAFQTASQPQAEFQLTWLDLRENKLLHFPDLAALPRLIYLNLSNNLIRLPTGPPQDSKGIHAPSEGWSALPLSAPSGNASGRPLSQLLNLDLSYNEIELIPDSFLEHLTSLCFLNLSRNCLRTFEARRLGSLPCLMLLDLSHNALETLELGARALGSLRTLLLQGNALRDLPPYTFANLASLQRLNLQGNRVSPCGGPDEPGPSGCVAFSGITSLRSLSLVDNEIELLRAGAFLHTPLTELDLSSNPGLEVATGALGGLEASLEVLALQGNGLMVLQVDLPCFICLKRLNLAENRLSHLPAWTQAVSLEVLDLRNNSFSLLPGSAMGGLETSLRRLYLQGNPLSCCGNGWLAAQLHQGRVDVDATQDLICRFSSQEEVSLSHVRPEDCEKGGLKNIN
T1 sequence (P01137 30-278 limits assumed, chain 2 of 3): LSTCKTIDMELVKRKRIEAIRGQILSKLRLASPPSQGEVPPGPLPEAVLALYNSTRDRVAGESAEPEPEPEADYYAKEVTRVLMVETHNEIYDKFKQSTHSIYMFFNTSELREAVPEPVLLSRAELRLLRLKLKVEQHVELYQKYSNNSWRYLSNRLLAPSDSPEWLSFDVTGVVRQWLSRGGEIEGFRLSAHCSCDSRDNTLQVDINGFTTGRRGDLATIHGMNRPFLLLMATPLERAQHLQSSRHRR
T1 sequence (P01137 279-390 limits assumed, chain 3 of 3): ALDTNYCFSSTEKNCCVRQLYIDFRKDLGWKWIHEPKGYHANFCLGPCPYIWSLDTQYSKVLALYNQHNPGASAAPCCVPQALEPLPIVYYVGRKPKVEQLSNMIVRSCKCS

- koff: 0.000201 s⁻¹
B1: Fab 17H5 (Fab of LHG-10.6) (Fab, V domains shown)
VH: EVQLVQPGAELRNSGASVKVSCKASGYRFTSYYIDWVRQAPGQGLEWMGRIDPEDGGTKYAQKFQGRVTFTADTSTSTAYVELSSLRSEDTAVYYCARNEWETVVVGDLMYEYEYWGQGTQVTVSS
VL: DIQMTQSPSSLSASLGDRVTITCQASQSISSYLAWYQQKPGQAPNILIYGASRLKTGVPSRFSGSGSGTSFTLTISGLEAEDAGTYYCQQYASVPVTFGQGTKVELK
notes: Parental, non-germlined Fab
